# Experiments:
# Experiment in all cases: cell-based or functional assay
# JR-CSF D325A (HIV-1) = JR-CSF D325A (HIV-1) (UniProt P20871)
# 92BR020 D325A (HIV-1) = target: 92BR020 D325A (HIV-1)
# JR-CSF N392A (HIV-1) = JR-CSF N392A (HIV-1) (UniProt P20871)
# JR-CSF G324A (HIV-1) = JR-CSF G324A (HIV-1) (UniProt P20871)
# 92BR020 N386A (HIV-1) = target: 92BR020 N386A (HIV-1)
# 92BR020 (HIV-1) = target: 92BR020 (HIV-1)
# [1] = target: BG505 (T332N) N156A (HIV-1)
# [2] = target: HIV-1 Env of pseudovirus 1394C9G1(Rev-) (HIV-1)
# 92BR020 N301A (HIV-1) = target: 92BR020 N301A (HIV-1)
# [3] = target: HIV-1 Env of pseudovirus ZM135M.PL10a (HIV-1)
# JR-CSF N332A (HIV-1) = JR-CSF N332A (HIV-1) (UniProt P20871)
# [4] = target: 92BR020 N156A + N332A (HIV-1)
# 92BR020 N332A (HIV-1) = target: 92BR020 N332A (HIV-1)
# JR-CSF I326A (HIV-1) = JR-CSF I326A (HIV-1) (UniProt P20871)
# 92BR020 I326A (HIV-1) = target: 92BR020 I326A (HIV-1)
# 92BR020 N392A (HIV-1) = target: 92BR020 N392A (HIV-1)
# [5] = target: HIV-1 Env of pseudovirus 7030102001E5(Rev-) (HIV-1)
# [6] = target: HIV-1 Env of pseudovirus ZM247v1(Rev-) (HIV-1)
# [7] = target: BG505 (T332N) N137A (HIV-1)
# JR-CSF H33OA (HIV-1) = JR-CSF H33OA (HIV-1) (UniProt P20871)
# JR-CSF N339A (HIV-1) = JR-CSF N339A (HIV-1) (UniProt P20871)
# [8] = target: 92BR020 N301A + N332A (HIV-1)
# [9] = target: HIV-1 Env of pseudovirus C3347.c11 (HIV-1)
substance,measurement,setting,value
PGT121 (antibody),IC50 in TZM-bl assay,JR-CSF D325A (HIV-1),0.079 µg/mL
same,IC50 in TZM-bl assay,92BR020 D325A (HIV-1),0.006 µg/mL
same,IC50 in TZM-bl assay,JR-CSF N392A (HIV-1),0.017 µg/mL
same,IC50 in TZM-bl assay,JR-CSF G324A (HIV-1),0.044 µg/mL
same,IC50 in TZM-bl assay,92BR020 N386A (HIV-1),0.006 µg/mL
same,IC50 in TZM-bl assay,92BR020 (HIV-1),0.004 µg/mL
same,IC50 in TZM-bl assay,[1],0.007 µg/mL
same,IC50 in TZM-bl assay,[2],0.823 µg/mL
same,IC80 in TZM-bl assay,[2],6.23 µg/mL
same,IC50 in TZM-bl assay,92BR020 N301A (HIV-1),0.003 µg/mL
same,IC50 in TZM-bl assay,[3],0.73 µg/mL
same,IC80 in TZM-bl assay,[3],5.73 µg/mL
same,IC50 in TZM-bl assay,JR-CSF N332A (HIV-1),> 50 µg/mL
same,IC50 in TZM-bl assay,[4],> 1 µg/mL
same,IC50 in TZM-bl assay,92BR020 N332A (HIV-1),0.08 µg/mL
same,IC50 in TZM-bl assay,JR-CSF I326A (HIV-1),0.024 µg/mL
same,IC50 in TZM-bl assay,92BR020 I326A (HIV-1),0.002 µg/mL
same,IC50 in TZM-bl assay,92BR020 N392A (HIV-1),0.007 µg/mL
same,IC80 in TZM-bl assay,[5],0.042 µg/mL
same,IC50 in TZM-bl assay,[6],0.036 µg/mL
same,IC80 in TZM-bl assay,[6],0.123 µg/mL
same,IC50 in TZM-bl assay,[7],0.002 µg/mL
same,IC50 in TZM-bl assay,JR-CSF H33OA (HIV-1),0.017 µg/mL
same,IC50 in TZM-bl assay,JR-CSF N339A (HIV-1),0.007 µg/mL
same,IC50 in TZM-bl assay,[8],> 1 µg/mL
BG18 IgG (354BG18) (antibody),IC50 in TZM-bl assay,[3],0.029 µg/mL
same,IC80 in TZM-bl assay,[3],0.161 µg/mL
same,IC50 in TZM-bl assay,[9],> 30 µg/mL
same,IC80 in TZM-bl assay,[9],> 30 µg/mL

# Reference: patent US11325966
